Results as given in publication PMC7357788, “Overlapping functions and protein-protein interactions of LRR-extensins in Arabidopsis” (PLoS Genetics, 2020).
“Also recorded” adds a separate entry of the source. Ends that are not written are not given here.

Key:
LRX3, LRX4, and LRX5 = conditions: vegetative tissues; ref [40],[41]; cited from earlier work
From the text: LRX proteins were recently identified as high-affinity binding sites for RALF peptides, with the binding spectrum differing among the LRXs. […] Whether and how the binding of RALFs and FER to LRXs influences the interaction of these proteins remains to be investigated. It is also unknown to what extent the different LRXs are functionally similar and whether they share FER as a common interaction ...

FLS2-BAK1 = conditions: ref [17]; cited from earlier work
From the text: Different LRXs bind an overlapping but not identical array of RALF peptides, and the full binding spectrum of the different LRXs might be even broader. One reason for the distinct RALF binding spectrum of LRXs is based on their expression pattern. […] It can be speculated that the diverse affinities of RALFs and LRXs contribute to the specificities of the plant’s response to different RALF peptides that have distinct biological activities [[17],[18],[19],[20],[26 ...

LRX1^ΔE = assay: Co-IP of LRX1^ΔE-HA with RALF1-FLAG; format: binding, Arabidopsis thaliana; conditions: Co-IP and immunoblotting, transient expression in N. benthamiana
Protocol: Here, we tested binding of RALF1 to LRX1.
For pulldown and Co-IP analysis of the different constructs indicated in the experiments DNA was infiltrated into Nicotiana benthamiana leaves, and after 48 hrs, the leaves were excised and ground in liquid nitrogen as described in [62]. Two hundred mg of tissue powder was re-suspended in 500 μL extraction buffer [200 mM Tris-HCl (pH 7.5), 150 mM NaCl, 1 mM PMSF, protease inhibitor and 0.5% Triton X-100]. The suspension was incubated on ice for 30 minutes and then centrifuged at 11,000 rpm for 20 minutes at 4°C. The supernatant (200 μL) was then incubated with 10 μL anti-HA (Thermo Scientific, 88837), or anti-FLAG magnetic beads overnight at 4°C on a rotating shaker. If RALF1 peptide was added, the peptide was diluted in such way that for every sample 1μL of peptide was added to the protein extracts. After incubation, the beads were washed five times with the wash buffer (extraction buffer containing 0.05% Triton X-100) and boiled in SDS-PAGE loading buffer for 15 minutes at 75°C. The immunoprecipitates were then run on an SDS-PAGE gel and transferred to nitrocellulose membrane to perform immunoblotting using the following antibodies: anti-FLAG M2 (Sigma-Aldrich, F3165), anti-GFP (Biolegend, 902601), anti-HA-HRP 3F10 (Roche, 12 013 819 001) and anti-mouse-HRP (Sigma Aldrich, A 4416). […]

FER^ECD [1] = assay: Yeast-two-hybrid LRX LRR domain-FER^ECD; format: binding, Arabidopsis thaliana; conditions: Y2H, yeast strain PJ69-4A, LRR domains, -Trp, Leu, His, Ade drop-out medium containing 5 mM 3-AT
From the text: The BD-LRX4 and AD-FER^ECD constructs for the Yeast-two-hybrid experiment were cloned as previously described, where NtermFER equals AD-FER^ECD and LRR4 equals BD-LRX4. For the BD-LRX1/2/3/5 constructs, the coding sequence of the LRR domain of the LRXs was amplified using primers (S3 Table) to introduce a BamHI and a XhoI site at the 5’ and 3’ end of the PCR fragments, respectively. These were cloned into pJET1.2 (Thermo Scientific) and correct clones were cut with BamHI and XhoI and ligated into pGBKT7 cut with BamHI and SalI. The AD-RALF1 construct was cloned into pJET1.2 (Thermo Scientific) by amplification of the coding sequence with the primers y2h_RALF1_F and y2h_RALF1_R. A correct clone was cut with EcoRI and XmaI and ligated into pGADT7 cut with EcoRI and XmaI.
Transformation of the yeast strain PJ69-4A [63] was done following standard procedures and quadruple drop-out medium lacking Leu, Trp, His, and Ade were used to screen for positive interactions after 4 days incubation at 30°C. Three different colonies containing both vectors were mixed and plated in triplicates on quadruple drop-out medium.
Supplementary file pgen.1008847.s001.pdf: S1 Fig Interaction of LRXs and FER in yeast-two-hybrid assays. […]

FER^ECD [2] = assay: Co-IP of LRX^ΔE with FER^ECD-Citrine; format: binding, Arabidopsis thaliana; conditions: proteins expressed in N. benthamiana
From the text: The root hair-localized LRX1 is so far the best characterized LRX protein and the lrx1 root hair mutant represents a convenient genetic system for analyses of LRX protein function. […] To this end, constructs encoding LRX1^ΔE-FLAG and the extracellular domain of FER fused to citrine (FER^ECD-Citrine) under the 35S promoter were expressed in tobacco for Co-IP experiments. […] The Y2H experiments were extended to other LRXs of vegetative tissues, namely the LRR domains of LRX2, LRX3, LRX4, and LRX5.
For pulldown and Co-IP analysis of the different constructs indicated in the experiments DNA was infiltrated into Nicotiana benthamiana leaves, and after 48 hrs, the leaves were excised and ground in liquid nitrogen as described in [62]. Two hundred mg of tissue powder was re-suspended in 500 μL extraction buffer [200 mM Tris-HCl (pH 7.5), 150 mM NaCl, 1 mM PMSF, protease inhibitor and 0.5% Triton X-100]. The suspension was incubated on ice for 30 minutes and then centrifuged at 11,000 rpm for 20 minutes at 4°C. The supernatant (200 μL) was then incubated with 10 μL anti-HA (Thermo Scientific, 88837), or anti-FLAG magnetic beads overnight at 4°C on a rotating shaker. If RALF1 peptide was added, the peptide was diluted in such way that for every sample 1μL of peptide was added to the protein extracts. […]

[3] = molecular target: LRX1^ΔE-FLAG (Arabidopsis thaliana); assay: BLI; BLITZ; LRX^ΔE-FLAG mixed with anti-FLAG M2 antibody and loaded onto a protein A biosensor; synthetic RALF1 peptide added at 0.2-200 μM; association 120 s, dissociation 120 s; sample diluent buffer (Pall FortéBio)
[4] = molecular target: LRX3^ΔE-FLAG (Arabidopsis thaliana) (UniProt Q9T0K5); assay: as above
[5] = molecular target: LRX4^ΔE-FLAG (Arabidopsis thaliana) (UniProt Q9LHF1); assay: as above
Chain of LRX4^ΔE-FLAG (Arabidopsis thaliana) (Q9LHF1 26-494, stated change not applied): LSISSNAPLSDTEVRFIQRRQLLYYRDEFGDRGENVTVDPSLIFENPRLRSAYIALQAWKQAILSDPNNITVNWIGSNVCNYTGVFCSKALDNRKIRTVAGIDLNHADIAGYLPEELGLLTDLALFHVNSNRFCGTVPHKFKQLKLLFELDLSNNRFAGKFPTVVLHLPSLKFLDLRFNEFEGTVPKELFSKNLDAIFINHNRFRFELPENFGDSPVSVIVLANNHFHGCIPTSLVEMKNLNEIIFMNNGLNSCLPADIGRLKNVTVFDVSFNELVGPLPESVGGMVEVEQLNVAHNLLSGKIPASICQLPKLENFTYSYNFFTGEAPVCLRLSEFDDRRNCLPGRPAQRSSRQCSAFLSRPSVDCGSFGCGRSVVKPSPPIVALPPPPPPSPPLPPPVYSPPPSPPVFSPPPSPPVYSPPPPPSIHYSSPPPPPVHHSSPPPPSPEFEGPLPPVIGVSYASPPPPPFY

[6] = molecular target: LRX5^ΔE-FLAG (Arabidopsis thaliana) (UniProt Q9SN46); assay: as above
Chain of LRX5^ΔE-FLAG (Arabidopsis thaliana) (Q9SN46 32-857, stated change not applied): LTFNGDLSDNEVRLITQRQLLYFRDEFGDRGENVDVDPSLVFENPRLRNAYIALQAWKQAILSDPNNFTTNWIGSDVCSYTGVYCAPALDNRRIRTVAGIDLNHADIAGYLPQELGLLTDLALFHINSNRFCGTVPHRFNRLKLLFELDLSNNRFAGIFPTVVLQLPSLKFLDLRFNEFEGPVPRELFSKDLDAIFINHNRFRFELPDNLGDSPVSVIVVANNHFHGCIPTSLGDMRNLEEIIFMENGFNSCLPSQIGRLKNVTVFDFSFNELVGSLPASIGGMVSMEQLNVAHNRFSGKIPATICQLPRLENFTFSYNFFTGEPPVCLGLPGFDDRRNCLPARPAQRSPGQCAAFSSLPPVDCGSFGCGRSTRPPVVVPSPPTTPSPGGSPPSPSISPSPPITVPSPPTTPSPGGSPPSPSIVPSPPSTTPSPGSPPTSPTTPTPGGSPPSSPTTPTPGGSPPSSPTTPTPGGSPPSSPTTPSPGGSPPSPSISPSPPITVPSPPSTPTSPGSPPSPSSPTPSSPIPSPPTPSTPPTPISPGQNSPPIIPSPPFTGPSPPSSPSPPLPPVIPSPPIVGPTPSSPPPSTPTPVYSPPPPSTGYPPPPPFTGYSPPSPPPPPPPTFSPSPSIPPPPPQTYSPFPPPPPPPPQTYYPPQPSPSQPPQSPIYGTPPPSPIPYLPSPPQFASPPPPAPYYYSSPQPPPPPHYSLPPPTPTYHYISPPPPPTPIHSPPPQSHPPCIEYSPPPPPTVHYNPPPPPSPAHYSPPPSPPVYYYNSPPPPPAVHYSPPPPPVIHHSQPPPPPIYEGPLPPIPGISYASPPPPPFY

## RALF23: RALF peptide reported to be bound by LRX3, LRX4, and LRX5 (ATRRYISYGALRRNTIPCSRRGASYYNCRRGAQANPYSRGCSAITRCRRS; UniProt Q9LUS7 89-138, looked up)
LRX3, LRX4, and LRX5
  binding to LRX3, LRX4, and LRX5: reported to bind
FLS2-BAK1
  effect on scaffolding function of FER: inducing the dissociation of FLS2 from BAK1

## RALF1-FLAG: FLAG-tagged RALF1 transiently expressed in N. benthamiana (ATTKYISYQSLKRNSVPCSRRGASYYNCQNGAQANPYSRGCSKIARCRS; ends and bridges not checked; also: FLAG tag, site not given here; UniProt Q9SRY3 72-120, looked up)
LRX1^ΔE
  interaction with LRX1^ΔE: showed interaction of the two proteins

B1: LRX1: LRR domain of LRX1 (BD-LRX1), gene At1g12040 (protein)
chain: MLFPPLRSLFLFTLLLSSVCFLQIKADHDDESDLGSDIKVDKRLKFENPKLRQAYIALQSWKKAIFSDPFNFTANWNGSDVCSYNGIYCAPSPSYPKTRVVAGIDLNHADMAGYLASELGLLSDLALFHINSNRFCGEVPLTFNRMKLLYELDLSNNRFVGKFPKVVLSLPSLKFLDLRYNEFEGKIPSKLFDRELDAIFLNHNRFRFGIPKNMGNSPVSALVLADNNLGGCIPGSIGQMGKTLNELILSNDNLTGCLPPQIGNLKKVTVFDITSNRLQGPLPSSVGNMKSLEELHVANNAFTGVIPPSICQLSNLENFTYSSNYFSGRPPICAASLLADIVVNGTMNCITGLARQRSDKQCSSLLARPVDCSKFGCYNIFSPPPPTFKMSPEVRTLPPPIYVYSSPPPPPSSKMSPTVRAYSPPPPPSSKMSPSVRAYSPPPPPYSKMSPSVRAYPPPPPPSPSPPPPYVYSSPPPPYVYSSPPPPPYVYSSPPPPPYVYSSPPPPYVYSSPPPPYVYSSPPPPPPSPPPPCPESSPPPPVVYYAPVTQSPPPPSPVYYPPVTQSPPPPSPVYYPPVTNSPPPPSPVYYPPVTYSPPPPSPVYYPQVTPSPPPPSPLYYPPVTPSPPPPSPVYYPPVTPSPPPPSPVYYPPVTPSPPPPSPVYYPSETQSPPPPTEYYYSPSQSPPPTKACKEGHPPQATPSYEPPPEYSYSSSPPPPSPTSYFPPMPSVSYDASPPPPPSYY
modifications: left off: Gal4 DNA-binding domain (from the vector pGBKT7), end not stated, kept
notes: LRR domain of LRX1 (BD-LRX1), gene At1g12040
FER^ECD [1]
  interaction with FER^ECD: confirmed in a yeast-two-hybrid (Y2H) experiment
FER^ECD [2]; listed as LRX1^ΔE
  interaction with FER^ECD: show interaction with FER^ECD

B2: synthetic RALF1 peptide (peptide)
peptide: ATTKYISYQSLKRNSVPCSRRGASYYNCQNGAQANPYSRGCSKIARCRS
[3]
  Kd: 4.5 nM
[4]
  Kd: 11000 nM
[5]
  Kd: 5.5 nM
[6]
  Kd: 3.5 nM

B3: LRX2: LRR domain of LRX2 (BD-LRX2), gene At1g62440 (protein)
chain: MLLFPSTSLRLFFFLFLLFSSCFLQIRGDDDDDDISDDNIKVDPSLKFENPSLRQAYIALQSWKQAIFSDPFNFTANWNGSDVCSYNGIFCAPSPSSPKTRVVAGIDLNHADMAGYLPRELGLLTDLALFHLNSNRFCGEVPLTFKHMKLLFELDLSNNRFVGKFPNVVLSLPSLKFLDLRYNEFEGSIPSKLFDKELDAIFLNHNRFMFGIPENMGNSPVSALVLADNDLGGCIPGSIGLMGKTLNEIILSNDNLTGCLPPQIGNLKNVTVFDISFNRLSGPLPSSIGNMKSLEQLNVANNRFTGVIPSSICQLSNLENFTYSSNFFTGDAPRCVALLGDNVVVNGSMNCIDGKEDQRSSKECSSPASRSVDCSKFGCNNFFSPPPPSFKMSPTVRVLPPPPPSSKMSPTFRATPPPPSSKMSPSFRATPPPPSSKMSPSFRATPPPPSSKMSPSVKAYPPPPPPPEYEPSPPPPSSEMSPSVRAYPPPPPLSPPPPSPPPPYIYSSPPPPSPSPPPPYIYSSPPPVVNCPPTTQSPPPPKYEQTPSPREYYPSPSPPYYQYTSSPPPPTYYATQSPPPPPPPTYYAVQSPPPPPPVYYPPVTASPPPPPVYYTPVIQSPPPPPVYYSPVTQSPPPPPPVYYPPVTQSPPPSPVYYPPVTQSPPPPPVYYLPVTQSPPPPSPVYYPPVAKSPPPPSPVYYPPVTQSPPPPSTPVEYHPPASPNQSPPPEYQSPPPKGCNDSPSNDHHYQTPTPPSLPPPYYEDTPLPPIRGVSYASPPPPSIPYY
modifications: left off: Gal4 DNA-binding domain (from the vector pGBKT7), end not stated, kept
notes: LRR domain of LRX2 (BD-LRX2), gene At1g62440
FER^ECD [1]
  interaction with FER^ECD: showed interaction with FER^ECD

B4: LRX3^ΔE: LRX3 lacking the extensin domain (protein)
chain: LSISSDGGVLSDNEVRHIQRRQLLEFAERSVKITVDPSLNFENPRLRNAYIALQAWKQAILSDPNNFTSNWIGSNVCNYTGVFCSPALDNRKIRTVAGIDLNHADIAGYLPEELGLLSDLALFHVNSNRFCGTVPHRFNRLKLLFELDLSNNRFAGKFPTVVLQLPSLKFLDLRFNEFEGTVPKELFSKDLDAIFINHNRFRFELPENFGDSPVSVIVLANNRFHGCVPSSLVEMKNLNEIIFMNNGLNSCLPSDIGRLKNVTVFDVSFNELVGPLPESVGEMVSVEQLNVAHNMLSGKIPASICQLPKLENFTYSYNFFTGEAPVCLRLPEFDDRRNCLPGRPAQRSPGQCKAFLSRPPVNCGSFSCGRSVSPRPPVVTPLPPPSLPSPPPPAPIFSTPPTLTSPPPPSPPPPVYSPPPPPPPPPPVYSPPPPPPPPPPPPVYSPPPPPPPPPPPPPVYSPPPPSPPPPPPPVYSPPPPPPPPPPPPVYSPPPPPVYSSPPPPPSPAPTPVYCTRPPPPPPHSPPPPQFSPPPPEPYYYSSPPPPHSSPPPHSPPPPHSPPPPIYPYLSPPPPPTPVSSPPPTPVYSPPPPPPCIEPPPPPPCIEYSPPPPPPVVHYSSPPPPPVYYSSPPPPPVYYSSPPPPPPVHYSSPPPPEVHYHSPPPSPVHYSSPPPPPSAPCEESPPPAPVVHHSPPPPMVHHSPPPPVIHQSPPPPSPEYEGPLPPVIGVSYASPPPPPFY
modifications: left off: double FLAG, C-terminal, kept
notes: LRX3 lacking the extensin domain
FER^ECD [2]
  interaction with FER^ECD: revealed interaction of the two proteins; also recorded: show interaction with FER^ECD
